T1: CD40L over-expressed on Expi293 cells (UniProt P29965 1-261, limits assumed)
T1 construct: whole, on cells; also called cytokine over-expressing Expi293 cells
T1 sequence (looked up): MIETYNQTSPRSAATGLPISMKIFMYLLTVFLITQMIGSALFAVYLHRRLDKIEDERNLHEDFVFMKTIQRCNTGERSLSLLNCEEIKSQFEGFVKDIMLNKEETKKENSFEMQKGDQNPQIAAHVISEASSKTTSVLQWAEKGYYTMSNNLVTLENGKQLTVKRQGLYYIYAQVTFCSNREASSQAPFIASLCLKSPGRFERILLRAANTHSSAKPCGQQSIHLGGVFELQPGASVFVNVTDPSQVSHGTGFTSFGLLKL

B1: CD40L-162 (antibody, V domains shown)
VH: EVQLLESGGGLVQPGGSLRLSCAASGGYNFRDYMHWVRQAPGKGLEWVAEIRNKANNHATKYADSVKGRFTISRDNSKNTLYLQMNSLRAEDTAVYYCAKNLGQGFDYWGQGTLVTVSS
VL: DIQMTQSPSSLSASVGDRVTITCRTSQDISNYLNWYQQKPGKAPKLLIYATSNLASGVPSRFSGSGSGTDFTLTISSLQPEDFATYYCQQSYSSAPMFGQGTKVEIK
notes: IgG2
B2: CD40L-158 (antibody, V domains shown)
VH: EVQLLESGGGLVQPGGSLRLSCAASGGYNFRDYMHWVRQAPGKGLEWVSSIGRHGGRTYYADSVKGRFTISRDNSKNTLYLQMNSLRAEDTAVYYCAKDLGQGFDYWGQGTLVTVSS
VL: DIQMTQSPSSLSASVGDRVTITCRASQDVSSGVAWYQQKPGKAPKLLIYQMSHLASGVPSRFSGSGSGTDFTLTISSLQPEDFATYYCSSQDTVTRVLGQGTKVEIK
notes: IgG2
B3: CD40L-173 (antibody, V domains shown)
VH: EVQLLESGGGLVQPGGSLRLSCAASGGYNFRDYMHWVRQAPGKGLEWVATISGGGINTYYPDSVKGRFTISRDNSKNTLYLQMNSLRAEDTAVYYCAKDLGQGFDYWGQGTLVTVSS
VL: DIQMTQSPSSLSASVGDRVTITCQSSQSVYSNNELSWYQQKPGKAPKLLIYGRNKRPSGVPSRFSGSGSGTDFTLTISSLQPEDFATYYCSQGTHVPPTFGQGTKVEIK
notes: IgG2
B4: CD40L-167 (antibody, V domains shown)
VH: EVQLLESGGGLVQPGGSLRLSCAASGGYNFRDYMHWVRQAPGKGLEWVSSISNSGGSTYYADSVKGRFTISRDNSKNTLYLQMNSLRAEDTAVYYCAKNLGQGFDYWGQGTLVTVSS
VL: DIQMTQSPSSLSASVGDRVTITCRASESVEYHGTSLMHWYQQKPGKAPKLLIYGTSNLESGVPSRFSGSGSGTDFTLTISSLQPEDFATYYCQQVVWRPFTFGQGTKVEIK
notes: IgG2
B5: CD40L-170 (antibody, V domains shown)
VH: EVQLLESGGGLVQPGGSLRLSCAASGGYNFKDYMHWVRQAPGKGLEWVSSIGRHGGRTYYADSVKGRFTISRDNSKNTLYLQMNSLRAEDTAVYYCAKDLGQGFDYWGQGTLVTVSS
VL: DIQMTQSPSSLSASVGDRVTITCRASQDVSSGVAWYQQKPGKAPKLLIYQMSHLASGVPSRFSGSGSGTDFTLTISSLQPEDFATYYCSSQDTVTRVLGQGTKVEIK
notes: IgG2
B6: CD40L-159 (antibody, V domains shown)
VH: EVQLLESGGGLVQPGGSLRLSCAASGFDFSDYEMSWVRQAPGKGLEWVSSITSEGGSTYYADSVKGRFTISRNNSKNTLYLQMNSLRAEDTAVYYCAKPDVLFDYWGQGTLVTVSS
VL: DIQMTQSPSSLSASVGDRVTITCRASQDISNYLNWYQQKPGKAPKLLIYGKKNRPSGVPSRFSGSGSGTDFTLTISSLQPEDFATYYCQQGYTRTDIDNTFGQGTKVEIK
notes: IgG2
B7: CD40L-174 (antibody, V domains shown)
VH: EVQLLESGGGLVQPGGSLRLSCAASGFDFSDYEMSWVRQAPGKGLEWVSSITSEGGSTYYADSVKGRFTISRDNSKNTLYLQMNSLRAEDTAVYYCAKPGRLFDYWGQGTLVTVSS
VL: DIQMTQSPSSLSASVGDRVTITCRASESVEYHGTSLMHWYQQKPGKAPKLLIYGRNKRPSGVPSRFSGSGSGTDFTLTISSLQPEDFATYYCQAWDRDTGVFGQGTKVEIK
notes: IgG2
B8: CD40L-169 (antibody, V domains shown)
VH: EVQLLESGGGLVQPGGSLRLSCAASGFDFSDYEMSWVRQAPGKGLEWVSSITSEGGSTYYADSVKGRFTISRDNSKNTLYLQMNSLRAEDTAVYYCAKPDVLFDYWGQGTLVTVSS
VL: DIQMTQSPSSLSASVGDRVTITCSGDKLGDKYAYWYQQKPGKAPKLLIYFTSTLAAGVPSRFSGSGSGTDFTLTISSLQPEDFATYYCQQSYSSAPTFGQGTKVEIK
notes: IgG2
B9: CD40L-168 (antibody, V domains shown)
VH: EVQLLESGGGLVQPGGSLRLSCAASGFDFSDYEMSWVRQAPGKGLEWVSSITSEGGSTYYADSVKGRFTISRDNSKNTLYLQMNSLRAEDTAVYYCAKPDVLFDYWGQGTLVTVSS
VL: DIQMTQSPSSLSASVGDRVTITCSGDNLGDKYVHWYQQKPGKAPKLLIYGKNIRPSGVPSRFSGSGSGTDFTLTISSLQPEDFATYYCQSGSSSANAVFGQGTKVEIK
notes: IgG2
B10: CD40L-177 (antibody, V domains shown)
VH: EVQLLESGGGLVQPGGSLRLSCAASGFTFASYEMTWVRQAPGKGLEWVSSITSEGGSTYYADSVKGRFTISRDNSKNTLYLQMNSLRAEDTAVYYCAKPDVLFDYWGQGTLVTVSS
VL: DIQMTQSPSSLSASVGDRVTITCRASQDVSSGVAWYQQKPGKAPKLLIYDASNLQSGVPSRFSGSGSGTDFTLTISSLQPEDFATYYCSQSTRVPPTFGQGTKVEIK
notes: IgG2
B11: CD40L-165 (antibody, V domains shown)
VH: EVQLLESGGGLVQPGGSLRLSCAASGFDFSDYEMSWVRQAPGKGLEWVSSITSEGGSTYYADSVKGRFTISRDNSKNTLYLQMNSLRAEDTAVYYCAKPDVLFDYWGQGTLVTVSS
VL: DIQMTQSPSSLSASVGDRVTITCRTSQDISNYLNWYQQKPGKAPKLLIYGASTLQSGVPSRFSGSGSGTDFTLTISSLQPEDFATYYCQQSYDNPLTFGQGTKVEIK
notes: IgG2
B12: CD40L-164 (antibody, V domains shown)
VH: EVQLLESGGGLVQPGGSLRLSCAASGFDFSDYEMSWVRQAPGKGLEWVSSITSEGGSTYYADSVKGRFTISRDNSKNTLYLQMNSLRAEDTAVYYCAKPDVLFDYWGQGTLVTVSS
VL: DIQMTQSPSSLSASVGDRVTITCRASSSVSYMHWYQQKPGKAPKLLIYAASDLESGVPSRFSGSGSGTDFTLTISSLQPEDFATYYCSQSTHVPTFGQGTKVEIK
notes: IgG2
B13: CD40L-171 (antibody, V domains shown)
VH: EVQLLESGGGLVQPGGSLRLSCAASGFDFSDYEMSWVRQAPGKGLEWVSSITSEGGSTYYADSVKGRFTISRDNSKNTLYLQMNSLRAEDTAVYYCAKPDQFFDYWGQGTLVTVSS
VL: DIQMTQSPSSLSASVGDRVTITCRASSSVSYMHWYQQKPGKAPKLLIYQNDKRPSGVPSRFSGSGSGTDFTLTISSLQPEDFATYYCQQHYSPSHTFGQGTKVEIK
notes: IgG2
B14: CD40L-172 (antibody, V domains shown)
VH: EVQLLESGGGLVQPGGSLRLSCAASGFDFSDYEMSWVRQAPGKGLEWVSSITSEGGSTYYADSVKGRFTISRDNSKNTLYLQMNSLRAEDTAVYYCAKPDVLFDYWGQGTLVTVSS
VL: DIQMTQSPSSLSASVGDRVTITCKASQHVITHVTWYQQKPGKAPKLLIYGTSDLQSGVPSRFSGSGSGTDFTLTISSLQPEDFATYYCQQSNSWPYTFGQGTKVEIK
notes: IgG2
B15: CD40L-161 (antibody, V domains shown)
VH: EVQLLESGGGLVQPGGSLRLSCAASGFDFSDYEMSWVRQAPGKGLEWVSSITSEGGSTYYADSVKGRFTISRDNSKNTLYLQMNSLRAEDTAVYYCAKPDVLFDYWGQGTLVTVSS
VL: DIQMTQSPSSLSASVGDRVTITCRASQDVSSGVAWYQQKPGKAPKLLIYATSTLQSGVPSRFSGSGSGTDFTLTISSLQPEDFATYYCQQSFSVPAFGQGTKVEIK
notes: IgG2
B16: CD40L-160 (antibody, V domains shown)
VH: EVQLLESGGGLVQPGGSLRLSCAASGFDFSDYEMSWVRQAPGKGLEWVSSITSEGGSTYYADSVKGRFTISRDNSKNTLYLQMNSLRAEDTAVYYCAKPDVLFDYWGQGTLVTVSS
VL: DIQMTQSPSSLSASVGDRVTITCRASQDVSSGVAWYQQKPGKAPKLLIYGKKNRPSGVPSRFSGSGSGTDFTLTISSLQPEDFATYYCQAWDRDTGVFGQGTKVEIK
notes: IgG2
B17: CD40L-180 (antibody, V domains shown)
VH: EVQLLESGGGLVQPGGSLRLSCAASGFDFSDYEMSWVRQAPGKGLEWVSSITSEGGSTYYADSVKGRFTISRDNSKNTLYLQMNSLRAEDTAVYYCAKPDVLFDYWGQGTLVTVSS
VL: DIQMTQSPSSLSASVGDRVTITCRASQSILSYLNWYQQKPGKAPKLLIYGASSLESGVPSRFSGSGSGTDFTLTISSLQPEDFATYYCQQTYDTPLTFGQGTKVEIK
notes: IgG2
B18: CD40L-166 (antibody, V domains shown)
VH: EVQLLESGGGLVQPGGSLRLSCAASGFDFSDYEMSWVRQAPGKGLEWVSSITSEGGSTYYADSVKGRFTISRDNSKNTLYLQMNSLRAEDTAVYYCAKPDVLFDYWGQGTLVTVSS
VL: DIQMTQSPSSLSASVGDRVTITCRASQSIISYVNWYQQKPGKAPKLLIYGASNLHSGVPSRFSGSGSGTDFTLTISSLQPEDFATYYCQQSYSTPTFGQGTKVEIK
notes: IgG2
B19: CD40L-175 (antibody, V domains shown)
VH: EVQLLESGGGLVQPGGSLRLSCAASGFDFSDYEMSWVRQAPGKGLEWVSSITSEGGSTYYADSVKGRFTISRDNSKNTLYLQMNSLRAEDTAVYYCAKPDKDFDYWGQGTLVTVSS
VL: DIQMTQSPSSLSASVGDRVTITCRASQTIGDYLNWYQQKPGKAPKLLIYDASNLQSGVPSRFSGSGSGTDFTLTISSLQPEDFATYYCQQSYELPLTFGQGTKVEIK
notes: IgG2
B20: CD40L-191 (antibody, V domains shown)
VH: EVQLLESGGGLVQPGGSLRLSCAASGFDFSDYEMSWVRQAPGKGLEWVSSITSEGGSTYYADSVKGRFTISRDNSKNTLYLQMNSLRAEDTAVYYCAKPDVLFDYWGQGTLVTVSS
VL: DIQMTQSPSSLSASVGDRVTITCSGNKLGDKYASWYQQKPGKAPKLLIYDTSKVASGVPSRFSGSGSGTDFTLTISSLQPEDFATYYCQQSYETPLTFGQGTKVEIK
notes: IgG2
B21: CD40L-156 (antibody, V domains shown)
VH: EVQLLESGGGLVQPGGSLRLSCAASGFMFSWYDMGWVRQAPGKGLEWVSSIDWHGWVTYYADSVKGRFTISRDNSKNTLYLQMNSLRAEDTAVYYCAKAYYGGFDYWGQGTLVTVSS
VL: DIQMTQSPSSLSASVGDRVTITCRASQPIGPDLLWYQQKPGKAPKLLIYDNTNRPSGVPSRFSGSGSGTDFTLTISSLQPEDFATYYCQQSQAAPLTFGQGTKVEIK
notes: IgG2

biological target: T1, CD40L over-expressed on Expi293 cells; test: flow cytometry, 100 nM antibody, CD40L-Expi293 vs parent Expi293 cells;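 note: ratio is the mean fluorescence intensity on CD40L-overexpressing Expi293 cells divided by the mean fluorescence intensity on parental Expi293 cells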
Experimental: All incubations and washes were in buffer containing PBS+1% BSA. MFI Ratio is defined by the mean fluorescence intensity (MFI) of the cytokine over-expressing Expi293 cell over the Expi293 parent cell. […] EC50 was calculated in GraphPad Prism.

Row | Binder | 100 nM FACS (MFI Ratio) [ratio]
1 | B1 | 0.3
2 | B2 | 1.5
3 | B3 | 0.4
4 | B4 | 1.4
5 | B5 | 0.6
6 | B6 | 0.3
7 | B7 | 0.4
8 | B8 | 0.4
9 | B9 | 0.2
10 | B10 | 8.9
11 | B11 | 0.5
12 | B12 | 0.4
13 | B13 | 0.4
14 | B14 | 0.5
15 | B15 | 0.9
16 | B16 | 0.3
17 | B17 | 4.3
18 | B18 | 1.1
19 | B19 | 0.4
20 | B20 | 9.7
21 | B21 | 1.3

Reference: patent US20230265179A1 (TWIST BIOSCIENCE, published 2023)
